In publication PMC2494536 (Cell, 2008) one finds Kd data, which are given here for two molecules.

Like-named read-outs stand apart in the source and are kept apart here.

B2: kinase domain of wildtype chicken c-Src, residues 251-533 (domain or fragment, UniProt P00523 251-533, looked up)
chain: QTQGLAKDAWEIPRESLRLEVKLGQGCFGEVWMGTWNGTTRVAIKTLKPGTMSPEAFLQEAQVMKKLRHEKLVQLYAVVSEEPIYIVTEYMSKGSLLDFLKGEMGKYLRLPQLVDMAAQIASGMAYVERMNYVHRDLRAANILVGENLVCKVADFGLARLIEDNEYTARQGAKFPIKWTAPEAALYGRFTIKSDVWSFGILLTELTTKGRVPYPGMVNREVLDQVERGYRMPCPPECPESLHDLMCQCWRKDPEERPTFEYLQAFLEDYFTSTEPQYQPGENL

Common to all, as to assay: SPR
The target of test [1] is B2.
Test [2] concerns the target T1, full-length Csk (C-terminal Src Kinase), residues 1-450 (UniProt P41240 1-450).
Test [3] addresses T2, Csk construct lacking the SH3 domain (SH2 and kinase domains), residues 68-450 (UniProt P41240 68-450).
Test [4] addresses T1, full-length Csk (C-terminal Src …). This is another data set of the same source.
In test [5] the target is T2, Csk construct lacking the SH3 domain …. The source holds these as a separate data set.

B1: kinase domain of Csk, residues 187-450 (domain or fragment, UniProt P41240 187-450, looked up)
chain: GWALNMKELKLLQTIGKGEFGDVMLGDYRGNKVAVKCIKNDATAQAFLAEASVMTQLRHSNLVQLLGVIVEEKGGLYIVTEYMAKGSLVDYLRSRGRSVLGGDCLLKFSLDVCEAMEYLEGNNFVHRDLAARNVLVSEDNVAKVSDFGLTKEASSTQDTGKLPVKWTAPEALREKKFSTKSDVWSFGILLWEIYSFGRVPYPRIPLKDVVPRVEKGYKMDAPDGCPPAVYEVMKNCWHLDAAMRPSFLQLREQLEHIKTHELHL
Consider B1, for which the Kd in test [1] is around 70 µM.
As to B2, the equilibrium dissociation constant (Kd) in test [2] is around 30 µM; in test [3], around 30 µM; in test [4], around 4 µM; in test [5] it was around 4 µM.
